Test results reported in the RNAGym collection of RNA variant scans (doi:10.1073/pnas.2313332121).

B1: TPR t1 (parent)
chain: GACCAAUCUGCCCUCAGAGCUCGAGAACAUCUUCGGAUGCAGAGGAGGCAGGCUUCGGUGGCGCGAUAGCGCCAACGUCCUCAACCUCCAAUGCAUCCCACCACAUGAUGAUGCCUGAAGAGCCUUGGUUUUUUG

Variants of: B1
Experiment: polymerase ribozyme fitness, log enrichment relative to wild type (log ratio); higher = more active; in vitro selection for triplet polymerase activity
Method in brief: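 Frozen incubation at −7 °C formed the core of a single, triplicate in vitro selection round applied to PCR-built, transcribed mutant libraries of each subunit of a heterodimeric triplet polymerase ribozyme. Extended constructs were gel-excised, captured with streptavidin beads and amplified by RT-PCR, and input and output libraries were Illumina-sequenced with a filter of ≥10 input reads and ≥1 read per output. Fitness is the logarithm of genotype enrichment relative to wild-type enrichment, with inverse-variance-weighted replicate averaging, and the logarithm is base 2.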

Variant | polymerase ribozyme fitness (log ratio)
GACCAAUCUGCUCUCAGAGCUCGAGAACAUCUUCGGAUGCAGAGGAGGCAGGCUUCGGUGGCGCGAUAGCGCCAACGUCCUCAACCUCCAAUGCAUCCCACCACAUGAUGAUGCCUGAAGAGUCUUGGUUUUUUG [C12U C123U] | 1.71
GACCAAUCUGCUCUCAGAGCUCGAGAACAUCUUCGGAUGCAGACGAGGCAGGCUUCGGUGGCGCGAUAGCGCCAACGUCCUGAACCUCCAAUGCAUCCCACCGCAUGAUGAUGCCUCAAGAGCCUUGGUUUUUUG [C12U G44C C82G A103G G117C] | -6.32
GACCAAUCUGCUCUCAGAGCUCGAGAACAUCUUCGGAUCCAGAGGAGGCAGCAUUCGGUGGCGCGAUAGCGCCAACGUACUCAACCUCCAAUGCAUCCCACCACAUGAUGAUGCCUGAUGAGCCUUGGUUUUUUG [C12U G39C G52C C53A C79A A119U] | -1.3
GACCAAUCUGCUCUCAGAGCUCGAGAACAUCUUCGGAUCCAGAGGAGGCAGGCUUCGGUGGCGUGAUAGCGCCAACGUCCUCAUCCUCCAAUGCAUCCCACCACAUGAUGAUGCCUGAAGAGCCUUGGUUUUUUG [C12U G39C C64U A84U] | -0.905
GACCAAUCUGCUCUCAGAGCUCGAGAACAUCUUCGAAUGCAGAGGAGGCAGGCUUCGGUGGCGCGAUAGCGCCAACGUCCUCCACCUCCAAUGCAUCCCACCACAAGAUGAUGCCUGAAGAGCCUUGGCUUUUUU [C12U G36A A83C U106A U129C G135U] | -1.4
GACCAAUCUGCUCUCAGAGCUCGAGAACAUCUUCGGAUGCAUAGGAGGCAGGCUUCGGUGGCGCGAUAGCGCCAACGUCCUCACCCUCCAAUGCAUCCCACCACAUGAUGAUGCCAGAAGAGCCUUGGUUUUUUG [C12U G42U A84C U116A] | -3.42
GACCAAUCUGCUCUCAGAACUCGAGAACAUCUUCGGAUGCAGAGUAGGCAGGCUUCGGUGGCGCGAUAGCGCCAACGUCCUCAACCUCCAAUGCAUCCCACCACAUGAUGAUGCCUGAAGAGCCUUGGUUUUUUG [C12U G19A G45U] | -2.71
GACCAAUCUGCUCUCAGAGCUCGAGAACAUCUUCGGAUGCACAGGAGGCAGGCUUCGGUGGAGCGAUAGCGCCAACGUCCUCAACCUCCAAUGCAUCCCACCACAUGAUGAUGCCUGAAUAGCCUCGGUUUUUUG [C12U G42C C62A G120U U126C] | -1.07
GACCAAUCUGCUCUCAGAGCUCGAGAACAUCUUCAGAUGCAGAGGAGGCAGGCUUCCGUGGCGCGAUAGCGCCAACGUCCUCAACCUUCAAUGCAUCCCACCACAUGAUGAUGCCUGAAGAGCCUUGGUUUUUUG [C12U G35A G57C C88U] | -4.97
GACCAAUCUGCUCUCAGAUCUCGAGAACAUCUUCGGAUGCAGUGGAGGCAGGCUUCGGUGGCGGGAUAGCGCCAACGUCCUCAACCUCCAAUGCCUCCCACCACAUGAUGAUGCCUUAAGAGCCUUGGUUUUUUG [C12U G19U A43U C64G A95C G117U] | -7.83
GACCAAUCUGCUCUCACAGCUCGAGAACAUCUUCGGAUGCAGAGGAGGCAGGCUUCGGUGGCGCGAUAGCGCCAACGUCCUCAACCUCCAAUGCAUGCCACCACAUGAUGAUGCGUGAAGAGCCUUGGUUUUUUG [C12U G17C C97G C115G] | -3.25
GACCAAUCUGCUCUCAGAGCUCGAGAACAUCUUCGGAUGCAGAGGAGGCAGGCUUCGGUGGCGCGAUAGCGCCAACGUCCUCAACCUCCAAUGAAUCCCACCACAUGAUGAUGCCUGAAGAGCCUUGGUUUUUUG [C12U C94A] | -0.148
GACCAAUCUGCUCUCAGAGCUCGAGAACAUCUUCGGAUGCAGAGGAGGCAGGCUUCGGUGGCGCGAUAGCGCCAACGUCCUCAACCUCCAAUGUAUCCCACCACAUGAUGAUGCCUGAAGAGCCUUGGUUUUUUG [C12U C94U] | -0.204
GACCAAUCUGCUCUCAGAGCUCGAGAACAUCUUCGGAUGCAGAGGAGGCAGGCUUCGGUGGCGCGAUAGCGCCAACGUCCUCAACCUCGAAUGCAUCCCACCACAUGAUGAUGCCUGAAGAGCCUUGGUUUUUUG [C12U C89G] | -0.883
GACCAAUCUGCUCUCAGAGCUCGAGAACAUCUUCGGAUGCAUAGGAGGCAGGCUUCGGUGGCGCGAUAGUGCCAACGUCCCCAACCUCCAAUGCAUCCCACCACAUGAUGAUGCCUGAAUAGCCUUGGUUUUUUG [C12U G42U C70U U81C G120U] | -1.9
GACCAAUCUGCUCUCAGAGCUCGAGAACAUCUUCGGAUGCAGAGAAGGCAGGCUUCGGUGGCGCGAUAGCGCCAACGUCCUCAACCUCCAAUGCACCCCACCACAUGAUUAUGCCUGAAGAGCCUUGGUUUUUUA [C12U G45A U96C G110U G135A] | -2.06
GACCAAUCUGCUCUCAGAGCUCGAGAACAUCUUCGGAUGCAGAGGAGGCAGGCUUCGGUGGCGCGAUAGCGCUAACGUCCUCAACCUCCAAUGCAUCCCACCACAUGAUGAUGCCUGAAGAGCCUUGGUUUUUUG [C12U C73U] | 0.0527
GACCAAUCUGCUCUCAGAGCUCGAGAACAUCUUCGGAUGCAGAGGAGGCAGGCUUCGGUGGCGCGAUAGCGCAAACGUCCUCAACCUCCAAUGCAUCCCACCACAUGAUGAUGCCUGAAGAGCCUUGGUUUUUUG [C12U C73A] | 0.441
GACCAAUCUGCUCUCAGAGCUCGAGAACAUCUUCGGAUGCAGAGGAGGCAGGCUUCGGUGGCGCGAUAGCGCCAACGUCCUCAACCUCCAAUGUAUCCCACCACAUGAUGACGCCUGAAGAGCCUUGGUUUUUUG [C12U C94U U112C] | 1.32
GACCAAUCUGCUCUCAGACCUCGAGAACAUCUUCGGAUGCAGAGGAGGCAGGCUUUGGUGGCGCGAUAGCGCCAACGUCCGCAACCUCCAAUGCAUCCCACCAAAUGAUGAUGCCUCAAGAGCCUUGGUUUUUUG [C12U G19C C56U U81G C104A G117C] | -5.9
GACCAAUCUGCUCUCAGAGCUCGAGAACAUCUUCGGAUGCAGAGGAGGCAGGCUUCGGUGGCGCGAUAGCGCCAACGUCUUCAACCUCCAAUGCAUCCCACCACAUGAUGAUGCCUGAAGAGCCUUGGUUUUUUG [C12U C80U] | -0.606

Variant | polymerase ribozyme fitness (log ratio)
GACCAAUCUGCUCUCAGAGCUCGAGAACAUCUUCGGAUGCAGAGGAGGCAGGCUUCGGUGGCGCGAUAGCGCCAACGUCCUCAACCUCCAAUGCAUUCCACCACAUGAUGAUGCCUGAAGAGCCUUGGUUUUUUG [C12U C97U] | -0.793
GACCAAUCUGCUCUCAGAGCUCGAGAACAUCUUCGGAUGCAGAGGAGGCAGGCUUCGGUGGCGCGAUAGCGCCAACGUCCUCAACCUCUAAUGCAUCCCCCCACAUGAUGAUGCCUGAAGAGCCUUGGUUUUGUG [C12U C89U A100C U133G] | -1.42
GACCAAUCUGCUCUCAUAGCUCGAGAAUAUCUUCGGAUACACAGGAGGCAGGCUUUGGUGGCGCGAUAGGGCCAACGUCCUCAACCUCCAAUGCAUCCCACCACAAGACGACGCCUGAAGAGCCUUGGUUUUUUG [C12U G17U C28U G39A G42C C56U C70G U106A U109C U112C] | -6.21
GACCAAUCUGCUCUCAGAGCUCGAGAACAUCUUCGGAUGCAGAGGAAGCAGGCUUCGGUGGCGCGAUAGCGCCAACGUCCUCAACCUCCAAUGCAUCCCACCACAUGAUGAUGCCUGAAGAGCCUUGGUUUUUUG [C12U G47A] | -0.468
GACCAAUCUGCUCUCAGAGCUCGAGAACAUCUUCGGAUGCAGAGGAGGCAGGCUUCGGUGGCGCGAUAGCGCCAACGUCCUCAACCUCCAAUGCAUCCAACCACAUGAUGAUGCCUGAAGAGCCUUGGUUUUUUG [C12U C99A] | -3.9
GACCAAUCUGCUCUCAGAGCUCGAGAACAUCUUCGGAUGCAGAGGAAGCAGGCUACGGUGUCGCGAUAGCGCCAACGUCCUCAACUUCCAAUGCAUCCCACCACAUGAUGAUGCCUGAAGAGCCUUGGUUUUUUG [C12U G47A U55A G61U C86U] | -0.0107
GACCAAUCUGCUCUCAGAGCUCGAGAACAUCUUCGGAUGCAGAGGAGGCAGGCUUCGGUGGCGCGAUAGCGCCAACGUCCUCAAGCUCCAAUGCAUCCCACCACAUGAUGAUGCCUGAAGAGCCUUGGUUUUUUG [C12U C85G] | -0.35
GACCAAUCUGCUCUCAGAGCUCGAGAACAUCUUCGGAUGCAGAUGAGGCAGGCUUCGGUGGCGCGAUAGCGCCAACGUCCUCAACCUCCAAUGCAUCCCACCACAUGAUAAUGCCUGAAGAGCCUUGGUUUUUUG [C12U G44U G110A] | -2.1
GACCAAUCUGCUCUCAGAGCUCGAGAACAUCUUCGGAUGCAGAGGAGGCAGGCUUCGGUGGCGCGAUAGCGCCAACGUCGUCAACCUCCAAUGCAUCCCACCACAUGAUGAUGCCUGAAGAGCCUUGCUCUUUUG [C12U C80G G128C U130C] | -4.44
GACCAAUCUGCUCUCAGAGCUCGAGAACAUCUUCGGAUGCAGAGGAGGCAGGCUUCGGUGGCGCGAUAGCGUCAACGUCCUCAACCUCCAAUGCAUCCCACCACAUGAUGAUGCCUGAAGAGCCUUGGUUUUUUG [C12U C72U] | -0.537
GACCAAUCUGCUCUCAGAGCUCAAGAACAUCUUCGGAUGCAGAGGAGGCAGGCUUCGGUGGCGCGAUAGCGCCAACGUCCUCAACCUCCAAUGCAUCCCACCACAUGAUGAUGCCUGAAGAGCCUUGGUCUUUUG [C12U G23A U130C] | -5.34
GACCAAUCUGCUCUCAGAGCUCGAGAACAUCUUCGGAUGCAGAGGAAGCAGGCUUCGGUGGCGCGAUAGCGCCAACGUUCUCAACCCCCAAUGCAUCCCACCACAUGAUGAUGCCUGAAGAGCCUUGGUUUUUUG [C12U G47A C79U U87C] | 0.112
GACCAAUCUGCUCUCAGAGCUCGAGAACAUCUUCGGAUGCAGAGGAGGCAGGCUUCGGUGGCGCGAUAGCGCAAACGUCCUCAACCUCCAAUGCAUCCCACCAAAUGAUGAUGCCUGAAGAGCCUUGGUUUUUUG [C12U C73A C104A] | -0.305
GACCAAUCUGCUCUCAGAGCUCGAGAACAUCUUCGGAUGCAGAGAAGGCAGGCUUCGGUGGCGCGAUAGCGCCAACGUCCUCAACCUCCAAUGCAUCCCACCACAUGAUGAUGCCUGAAGAGCCUUGGUUUUUUG [C12U G45A] | -1.24
GACCAAUCUGCUCUCAGAGCUCGAGAACAUCUUCGGAUGCAGAGUAGGCAGGCUUCGGUGGCGCGAUAGCGCCAACGUCCUCAACCUCCAAUGCAUCCCACCACAUGAUGAUGCCUGAAGAGCCUUGGUUUUUUG [C12U G45U] | -0.901
GACCAAUCUGCUCUCAGAGCUCGAGAACAUCUUCGGAUGCAGAGGACGCAGGCUUCGGUGGCGCGAUAUCGCCAACGUCCUCAACCUCCAAUGCAUCCCACCACAUAAUGAUGCCUGAAGAGCCUUGGUUUUUUG [C12U G47C G69U G107A] | -4.81
GACCAAUCUGCUCUCAGAUCUCGAGAACAUCUUCGGAUGCAGAGGAGGCAGGCUUCGGUGGCGCGAUAGCGCCAACGUCCUCAACCUCCCAUGCAUCCCACCACAUGAUGAUGCCUGAAGAGCCUUGGUUUUUUG [C12U G19U A90C] | -2.37
GACCAAUCUGCUCUCAGAGCUCGAGAACAUCUUCAGAUGCAGAGGAGGCAGGCUUCGGUGGUGCGAUAGCGCCAACGUCCUCAACCUCCAAUGCAUCCCACCACAUGAUGAUGCCUAAAGAGCCUUGGUUUUUUG [C12U G35A C62U G117A] | -6.59
GACCAAUCUGCUCUCAGAGCUCGAGAACAUCUUCGGAUGCAGAGUAGGCAGGCUUCGGUGGCGCGAUAGCGCCAACCUCCUCAACCUCCAAUGCAUCCCACCACAUGAUGAUGCCUGAAGAGCCUUGGUUUUUUG [C12U G45U G77C] | -0.677
GACCAAUCUGCUCUCAGAGCUCGAGAACAUCUUCGGAUGCAGAUGACGCAGGCUUCGGUGGCGCGAUAGCGCCAACGUCCUCAACCUCACAUGCAUCCCACCACAUGAUGAUGCCAGAAGAGCCUUGGUUGUUUG [C12U G44U G47C C89A A90C U116A U131G] | -3.02
GACCAAUCUGCUCUCAGAGCUCGAGAACAUCUUCGGAUGCAGAGGAGACAGGCGUCGGUGGCGCGAUAGCGCCAACGUCCUCAACCUCCAAUGCAUCCCACCACAUGAUGAUGCCUGAAGUGCCUUGGGUUUUUG [C12U G48A U54G A121U U129G] | 0.00313
